Test results: US5705608, “Human IL-2 receptor γ chain molecule” (Ajinomoto Co., Inc., dated 1998)

What was measured:
IL-2 labelled with 125I [1] = molecular target: T1, IL-2 labelled with 125I (human, UniProt P60568, 125I label by the chloramine-T method); assay: 125I-IL-2 binding to Lβγ-9 cells at 4° C., Scatchard plot
Description: (§1) The radioactivity of ^125I-IL-2 bound or not bound to the cells was determined. The value for the background or the binding radioactivity in the case of addition of unlabelled IL-2 was subtracted from each of the measurements to calculate the binding amounts, the binding ability and the binding affinity of IL-2 to the receptor as determined by a Scatchard plot.

IL-2 labelled with 125I [2] = molecular target: T1, IL-2 labelled with 125I; assay: 125I-IL-2 binding to Lαβγ-4 cells at 4° C., Scatchard plot, biphasic, high affinity component
Description: as §1

IL-2 labelled with 125I [3] = molecular target: T1, IL-2 labelled with 125I; assay: 125I-IL-2 binding to Lαβγ-4 cells at 4° C., Scatchard plot, biphasic, low affinity component
Description: as §1

Binder	Kd (IL-2 labelled with 125I [1])	Kd (IL-2 labelled with 125I [2])	Kd (IL-2 labelled with 125I [3])
IL-2 receptor β and γ chains on Lβγ-9 cells (L929 cells with IL-2 receptor β and γ chain expression) (receptor) chain 1: AVNGTSQFTCFYNSRANISCVWSQDGALQDTSCQVHAWPDRRRWNQTCELLPVSQASWACNLILGAPDSQKLTTVDIVTLRVLCREGVRWRVMAIQDFKPFENLRLMAPISLQVVHVETHRCNISWEISQASHYFERHLEFEARTLSPGHTWEEAPLLTLKQKQEWICLETLTPDTQYEFQVRVKPLQGEFTTWSPWSQPLAFRTKPAALGKDTIPWLGHLLVGLSGAFGFIILVYLLINCRNTGPWLKKVLKCNTPDPSKFFSQLSSEHGGDVQKWLSSPFPSSSFSPGGLAPEISPLEVLERDKVTQLLLQQDKVPEPASLSSNHSLTSCFTNQGYFFFHLPDALEIEACQVYFTYDPYSEEDPDEGVAGAPTGSSPQPLQPLSGEDDAYCTFPSRDDLLLFSPSLLGGPSPPSTAPGGSGAGEERMPPSLQERVPRDWDPQPLGPPTPGVPDLVDFQPPPELVLREAGEEVPDAGPREGVSFPWSRPPGQGEFRALNARLPLNTDAYLSLQELQGQDPTHLV chain 2: LNTTILTPNGNEDTTADFFLTTMPTDSLSVSTLPLPEVQCFVFNVEYMNCTWNSSSEPQPTNLTLHYWYKNSDNDKVQKCSHYLFSEEITSGCQLQKKEIHLYQTFVVQLQDPREPRRQATQMLKLQNLVIPWAPENLTLHKLSESQLELNWNNRFLNHCLEHLVQYRTDWDHSWTEQSVDYRHKFSLPSVDGQKRYTFRVRSRFNPLCGSAQHWSEWSHPIHWGSNTSKENPFLFALEAVVISVGSMGLIISLLCVYFWLERTMPRIPTLKNLEDLVTEYHGNFSAWSGVSKGLAESLQPDYSERLCLVSEIPPKGGALGEGPGASPCNQHSPYWAPPCYTLKPET	4.6 nM	–	–
IL-2 receptor α, β and γ chains on Lαβγ-4 cells (L929 with IL-2 receptor α, β and γ chain expression) (receptor) chain 1: ELCDDDPPEIPHATFKAMAYKEGTMLNCECKRGFRRIKSGSLYMLCTGNSSHSSWDNQCQCTSSATRNTTKQVTPQPEEQKERKTTEMQSPMQPVDQASLPGHCREPPPWENEATERIYHFVVGQMVYYQCVQGYRALHRGPAESVCKMTHGKTRWTQPQLICTGEMETSQFPGEEKPQASPEGRPESETSCLVTTTDFQIQTEMAATMETSIFTTEYQVAVAGCVFLLISVLLLSGLTWQRRQRKSRRTI chain 2: AVNGTSQFTCFYNSRANISCVWSQDGALQDTSCQVHAWPDRRRWNQTCELLPVSQASWACNLILGAPDSQKLTTVDIVTLRVLCREGVRWRVMAIQDFKPFENLRLMAPISLQVVHVETHRCNISWEISQASHYFERHLEFEARTLSPGHTWEEAPLLTLKQKQEWICLETLTPDTQYEFQVRVKPLQGEFTTWSPWSQPLAFRTKPAALGKDTIPWLGHLLVGLSGAFGFIILVYLLINCRNTGPWLKKVLKCNTPDPSKFFSQLSSEHGGDVQKWLSSPFPSSSFSPGGLAPEISPLEVLERDKVTQLLLQQDKVPEPASLSSNHSLTSCFTNQGYFFFHLPDALEIEACQVYFTYDPYSEEDPDEGVAGAPTGSSPQPLQPLSGEDDAYCTFPSRDDLLLFSPSLLGGPSPPSTAPGGSGAGEERMPPSLQERVPRDWDPQPLGPPTPGVPDLVDFQPPPELVLREAGEEVPDAGPREGVSFPWSRPPGQGEFRALNARLPLNTDAYLSLQELQGQDPTHLV chain 3: LNTTILTPNGNEDTTADFFLTTMPTDSLSVSTLPLPEVQCFVFNVEYMNCTWNSSSEPQPTNLTLHYWYKNSDNDKVQKCSHYLFSEEITSGCQLQKKEIHLYQTFVVQLQDPREPRRQATQMLKLQNLVIPWAPENLTLHKLSESQLELNWNNRFLNHCLEHLVQYRTDWDHSWTEQSVDYRHKFSLPSVDGQKRYTFRVRSRFNPLCGSAQHWSEWSHPIHWGSNTSKENPFLFALEAVVISVGSMGLIISLLCVYFWLERTMPRIPTLKNLEDLVTEYHGNFSAWSGVSKGLAESLQPDYSERLCLVSEIPPKGGALGEGPGASPCNQHSPYWAPPCYTLKPET	–	0.077 nM	2.4 nM
